Reference: paper PMC3762913

Tests used:
Settings in all cases: remark: other sources report otherwise
[1] = target: T1, wild type (WT) human peripheral myelin protein 22 (PMP22) (human), Q01453; experiment: cross-linking
T1 chain: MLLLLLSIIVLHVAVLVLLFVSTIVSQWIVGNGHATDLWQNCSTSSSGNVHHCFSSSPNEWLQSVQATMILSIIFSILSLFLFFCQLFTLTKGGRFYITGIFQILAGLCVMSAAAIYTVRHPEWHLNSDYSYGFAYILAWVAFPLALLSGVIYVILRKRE

[2] = target: T1, wild type (WT) human peripheral myelin …; experiment: cross-linking
[3] = target: T1, wild type (WT) human peripheral myelin …; experiment: cross-linking
[4] = target: T1, wild type (WT) human peripheral myelin …; experiment: cross-linking
[5] = target: T1, wild type (WT) human peripheral myelin …; experiment: SEC

B1: wild type (WT) human peripheral myelin protein 22 (PMP22), Q01453 1-160 (natural protein)
chain: MLLLLLSIIVLHVAVLVLLFVSTIVSQWIVGNGHATDLWQNCSTSSSGNVHHCFSSSPNEWLQSVQATMILSIIFSILSLFLFFCQLFTLTKGGRFYITGIFQILAGLCVMSAAAIYTVRHPEWHLNSDYSYGFAYILAWVAFPLALLSGVIYVILRKRE
Which results are given for B1?
fraction of cross-linked dimer [1]: 0.6; fraction of cross-linked dimer [2]: 0.5; stoichiometry N [2]: 2; fraction of cross-linked dimer [3]: 0.2; fraction of cross-linked dimer [4]: 0.3; stoichiometry N [5]: 2
